Data taken from patent US20230235004A1 (published 2023).

What was measured:
[1] = target: T1, recombinant mouse MAdCAM-1 (mouse, UniProt Q61826 22-364, limits assumed); experiment: Octet
T1 construct: also called mMAdCAM-1
T1 sequence (looked up): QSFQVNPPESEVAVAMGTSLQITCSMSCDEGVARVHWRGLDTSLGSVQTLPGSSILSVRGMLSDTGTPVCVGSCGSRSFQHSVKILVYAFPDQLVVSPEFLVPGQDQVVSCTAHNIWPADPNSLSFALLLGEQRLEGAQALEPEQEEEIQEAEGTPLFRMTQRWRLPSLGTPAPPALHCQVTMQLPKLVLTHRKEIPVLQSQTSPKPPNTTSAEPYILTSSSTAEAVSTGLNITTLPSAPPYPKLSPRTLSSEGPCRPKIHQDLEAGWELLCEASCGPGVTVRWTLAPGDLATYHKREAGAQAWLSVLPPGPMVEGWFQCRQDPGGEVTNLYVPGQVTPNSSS

[2] = target: T2, human MAdCAM expressed on cells (human, UniProt Q13477 19-382); experiment: cell binding
T2 construct: whole, on cells
T2 sequence (looked up): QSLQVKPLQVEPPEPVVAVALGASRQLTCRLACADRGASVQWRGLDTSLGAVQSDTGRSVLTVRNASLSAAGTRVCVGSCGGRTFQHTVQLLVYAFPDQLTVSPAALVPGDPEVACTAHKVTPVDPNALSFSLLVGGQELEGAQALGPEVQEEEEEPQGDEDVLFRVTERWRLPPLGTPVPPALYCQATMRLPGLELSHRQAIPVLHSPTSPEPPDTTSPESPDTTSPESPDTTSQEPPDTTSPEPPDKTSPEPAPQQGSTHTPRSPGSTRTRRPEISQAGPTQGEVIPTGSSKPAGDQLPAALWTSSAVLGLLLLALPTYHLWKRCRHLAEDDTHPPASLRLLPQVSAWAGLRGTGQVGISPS

[3] = target: T3, mouse MAdCAM expressed on cells (mouse, UniProt Q61826 22-405); experiment: cell binding
T3 construct: whole, on cells
T3 sequence (looked up): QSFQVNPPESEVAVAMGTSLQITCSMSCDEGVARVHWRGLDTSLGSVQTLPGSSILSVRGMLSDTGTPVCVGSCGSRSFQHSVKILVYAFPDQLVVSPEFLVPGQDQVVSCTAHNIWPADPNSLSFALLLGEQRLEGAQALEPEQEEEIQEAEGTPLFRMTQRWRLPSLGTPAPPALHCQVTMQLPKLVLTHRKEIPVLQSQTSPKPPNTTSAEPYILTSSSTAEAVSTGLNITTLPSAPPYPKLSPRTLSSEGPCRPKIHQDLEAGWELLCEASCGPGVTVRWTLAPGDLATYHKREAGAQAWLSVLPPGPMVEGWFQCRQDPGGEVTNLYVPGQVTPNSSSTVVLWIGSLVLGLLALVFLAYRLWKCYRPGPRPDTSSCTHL

[4] = target: T4, human MAdCAM protein (human, UniProt Q13477 19-317, limits assumed); experiment: Octet
T4 construct: also called soluble monomeric human MAdCAM; recombinant human MAdCAM
T4 sequence (looked up): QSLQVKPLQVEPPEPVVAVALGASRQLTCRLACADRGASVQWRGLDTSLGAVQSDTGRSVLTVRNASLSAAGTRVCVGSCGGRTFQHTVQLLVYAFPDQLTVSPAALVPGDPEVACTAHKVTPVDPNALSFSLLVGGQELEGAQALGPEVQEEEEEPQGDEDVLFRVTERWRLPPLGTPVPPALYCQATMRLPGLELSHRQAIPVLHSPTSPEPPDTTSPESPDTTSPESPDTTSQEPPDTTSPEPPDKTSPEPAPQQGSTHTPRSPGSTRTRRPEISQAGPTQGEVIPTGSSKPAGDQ

B1: MAdCAM Antibody Table 2 clone 8 (antibody, V domains shown)
VH: QVQLVQSGAEVKKPGASVKVSCKASGYTFTGYHIHWVRQAPGQGLEWMGIINPSGGSTIYAQKFQGRVTMTRDTSTSTVYMELSSLRSEDTAVYYCAKDWSSWYLGPFDYWGQGTLVTVSS
VL: DIQMTQSPSSLSASVGDRVTITCRASQNISSSLNWYQQKPGKAPKLLIYAASSLQSGVPSRFSGSGSGTDFTLTISSLQPEDFATYYCQQSYTTPYTFGQGTKVEIK
notes: IgG format
binding result [1]: binds
binding result [2]: binds
binding result [3]: binds

B2: MAdCAM Antibody Table 2 clone 11 (antibody, V domains shown)
VH: EVQLLESGGGLVQPGGSLRLSCAASGFTFSDYYMNWVRQAPGKGLEWVSVIGESGGSTYYADSVKGRFTISRDNSKNTLYLQMNSLRAEDTAVYYCAADPVSRWPKHGGGDYWGQGTLVTVSS
VL: DIQMTQSPSSLSASVGDRVTITCRASQGISSSLAWYQQKPGKAPKLLIYAASTLQSGVPSRFSGSGSGTDFTLTISSLQPEDFATYYCQQSYSTPWTFGQGTKVEIK
notes: IgG format
binding result [4]: binds
binding result [1]: binds
binding result [2]: binds
binding result [3]: binds

B3: MAdCAM Antibody Table 2 clone 17 (antibody, V domains shown)
VH: QVQLVQSGAEVKKPGSSVKVSCKASGYTFTDYHIHWVRQAPGQGLEWMGGIVPRSGSTTYAQKFQGRVTITADESTSTAYMELSSLRSEDTAVYYCAKDESSGWYYFDYWGQGTLVTVSS
VL: DIVMTQSPLSLPVTPGEPASISCRSSQSLLHSNGYNYLDWYLQKPGQSPQLLIYSAYNRASGVPDRFSGSGSGTDFTLKISRVEAEDVGVYYCMQALQTPLTFGQGTKVEIK
notes: IgG format
binding result [4]: binds
binding result [1]: no binding
binding result [2]: binds
binding result [3]: no binding

B4: MAdCAM Antibody Table 2 clone 20 (antibody, V domains shown)
VH: EVQLLESGGGLVQPGGSLRLSCAASGFTFSDSAMHWVRQAPGKGLEWVSAISGSGSTIYYADSVKGRFTISRDNSKNTLYLQMNSLRAEDTAVYYCVSDIAVAGHWYFDLWGRGTLVTVSS
VL: DIQMTQSPSSLSASVGDRVTITCRASQSISTFLNWYQQKPGKAPKLLIYAASRLEGGVPSRFSGSGSGTDFTLTISSLQPEDFATYYCQQANSFPLTFGPGTKVDIK
notes: IgG format
binding result [4]: binds
binding result [1]: no binding
binding result [2]: binds
binding result [3]: no binding

B5: MAdCAM Antibody Table 2 clone 22 (antibody, V domains shown)
VH: EVQLLESGGGLVQPGGSLRLSCAASGFTFDDYAMHWVRQAPGKGLEWVSGISWNSGSIGYADSVKGRFTISRDNSKNTLYLQMNSLRAEDTAVYYCAKDIVAAGHYYYGMDVWGQGTTVTVSS
VL: DIQMTQSPSSLSASVGDRVTITCQASQDISNYLNWYQQKPGKAPKLLIYDASNLETGVPSRFSGSGSGTDFTLTISSLQPEDFATYYCQQSYSTPLTFGGGTKVEIK
notes: IgG format
binding result [4]: binds
binding result [1]: no binding
binding result [2]: binds
binding result [3]: no binding

B6: MAdCAM Antibody Table 2 clone 23 (antibody, V domains shown)
VH: EVQLLESGGGLVQPGGSLRLSCAASGFTFDDYAMHWVRQAPGKGLEWVSYIDTSSSHLYYADSVKGRFTISRDNSKNTLYLQMNSLRAEDTAVYYCARDEAAAGYYGMDVWGQGTTVTVSS
VL: DIQMTQSPSSLSASVGDRVTITCQAGQDISNYLNWYQQKPGKAPKLLIYDASNLETGVPSRFSGSGSGTDFTLTISSLQPEDFATYYCQQTYSTPITFGQGTKLEIK
notes: IgG format
binding result [4]: binds
binding result [1]: no binding
binding result [2]: binds
binding result [3]: no binding

B7: MAdCAM Antibody Table 2 clone 24 (antibody, V domains shown)
VH: EVQLVESGGGLVKPGGSLRLSCAASGFTFSSYWMSWVRQAPGKGLEWVSRISSDGRITTYAAPVKGRFTISRDDSKNTLYLQMNSLKTEDTAVYYCARGTSYCTGGVCDIDYWGQGTLVTVSS
VL: DIQMTQSPSSLSASVGDRVTITCRASQSIGRNLNWYQQKPGKAPKLLIYSASNLQSGVPSRFSGSGSGTDFTLTISSLQPEDFATYYCQQSYSIPLTFGPGTKVDIK
notes: IgG format
binding result [1]: no binding
binding result [2]: binds
binding result [3]: no binding
